# According to patent US20240368668:
# Changes are numbered by the printed parent chain. Names may count otherwise.
# T1: purified recombinant human HA-tagged EFEMP1/Fibulin-3 (R&D, 8416-FB), Q12805
# T1 chain: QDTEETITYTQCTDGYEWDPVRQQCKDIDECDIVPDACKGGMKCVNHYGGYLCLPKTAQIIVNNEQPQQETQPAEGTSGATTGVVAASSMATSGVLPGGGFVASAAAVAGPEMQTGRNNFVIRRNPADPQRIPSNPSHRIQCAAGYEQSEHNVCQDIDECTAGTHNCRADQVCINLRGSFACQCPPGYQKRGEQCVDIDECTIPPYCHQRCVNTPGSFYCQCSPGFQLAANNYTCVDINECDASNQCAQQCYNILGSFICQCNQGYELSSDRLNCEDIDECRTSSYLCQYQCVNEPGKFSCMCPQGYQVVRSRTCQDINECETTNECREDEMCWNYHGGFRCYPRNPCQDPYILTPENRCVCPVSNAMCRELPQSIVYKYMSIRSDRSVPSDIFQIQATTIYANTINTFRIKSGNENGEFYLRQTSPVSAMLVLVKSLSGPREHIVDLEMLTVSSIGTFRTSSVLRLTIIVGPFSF
# T2: endogenous EFEMP1 (EGF-containing fibulin-like extracellular matrix protein 1, Fibulin-3) secreted by HUVEC, Q12805
# T2 chain: T1 chain
# B1: purified full-length mouse ADAMTS7 S3A WT 3xFlag (protein)
# chain: SVAKEKWVETLVVADSKMVEYHGQPQVESYVLTIMNMVAGLFHDPSIGNPIHISIVRLIILEDEEKDLKITHHAEETLKNFCRWQKNINIKGDDHPQHHDTAILLTRKDLCASMNQPCETLGLSHVSGLCHPQLSCSVSEDTGMPLAFTVAHELGHSFGIQHDGTGNDCESIGKRPFIMSPQLLYDRGIPLTWSRCSREYITRFLDRGWGLCLDDRPSKDVIALPSVLPGVLYDVNHQCRLQYGSHSAYCEDMDDVCHTLWCSVGTTCHSKLDAAVDGTSCGKNKWCLKGECVPEGFQPEAVDGGWSGWSAWSDCSRSCGVGVRSSERQCTQPVPKNRGKYCVGERKRSQLCNLPACPPDRPSFRHTQCSQFDGMLYKGKLHKWVPVPNDDNPCELHCRPSNSSNTEKLRDAVVDGTPCYQSRISRDICLNGICKNVGCDFVIDSGAEEDRCGVCRGDGSTCQTVSRTFKETEGQGYVDIGLIPAGAREILIEEVAEAANFLALRSEDPDKYFLNGGWTIQWNGDYRVAGTTFTYARKGNWENLTSPGPTSEPVWIQLLFQEKNPGVHYQYTIQRDSHDQVRPPEFSWHYGPWSKCTVTCGTGVQRQSLYCMERQAGVVAEEYCNTLNRPDERQRKCSEEPCPPRWWAGEWQPCSRSCGPEGLSRRAVFCIRSMGLDEQRALELSACEHLPRPLAETPCNRHVICPSTWGVGNWSQCSVTCGAGIRQRSVLCINNTDVPCDEAERPITETFCFLQPCQYPMYIVDTGASGSGSSSPELFNEVDFIPNQLAPRPSPASSPKPVSISNAIDEEELDPPGPVFVDDFYYDYNFINFHEDLSYGSFEEPHPDLVDNGGWTAPPHIRPTESPSDTPVPTAGALGAEAEDIQGSWSPSPLLSEASYSPPGLEQTSINPLANFLTEEDTPMGAPELGFPSLPWPPASVDDMMTPVGPGNPDELLVKEDEQSPPSTPWSDRNKLSTDGNPLGHTSPALPQSPIPTQPSPPSISPTQASPSPDVVEVSTGWNAAWDPVLEADLKPGHGELPSTVEVASPPLLPMATVPGIWGRDSPLEPGTPTFSSPELSSQHLKTLTMPGTLLLTVPTDLRSPGPSGQPQTPNLEGTQSPGLLPTPARETQTNSSKDPEVQPLQPSLEEDGDPADPLPARNASWQVGNWSQCSTTCGLGAIWRLVSCSSGNDEDCTLASRPQPARHCHLRPCAAWRTGNWSKCSRNCGGGSSTRDVQCVDTRDLRPLRPFHCQPGPTKPPNRQLCGTQPCLPWYTSSWRECSEACGGGEQQRLVTCPEPGLCEESLRPNNSRPCNTHPCTQWVVGPWGQCSAPCGGGVQRRLVRCVNTQTGLAEEDSDLCSHEAWPESSRPCATEDCELVEPPRCERDRLSFNFCETLRLLGRCQLPTIRAQCCRSCPPLSRGVPSRGHQRVARR
# B2: purified full-length mouse ADAMTS7 S3A EQ (catalytic mutant E373Q) (protein)
# chain: B1 chain with E153Q
# B3: full-length mouse Adamts7 1-1857 WT with a carboxyl terminal 3xFLAG tag, expressed from adenovirus (protein)
# chain: B1 chain with A3S
# B4: full-length mouse Adamts7 1-1857 E373Q catalytic mutant with a carboxyl terminal 3xFLAG tag, expressed from adenovirus (protein)
# chain: B1 chain with A3S, E153Q
# What was measured:
# [1] = biological target: Q68SA9
# [2] = biological target: T1, purified recombinant human HA-tagged …
# [3] = biological target: T2, endogenous EFEMP1 (EGF-containing …)
protein,measurement,setting,value
B1,"auto-cleavage, peptide sequencing of the purified protein",[1],Peptide sequencing (Tufts University Core Facility) of the lower band or the total purified WT S3A protein identified a potential auto-cleavage site at F1062 (SYGS|FEEP)
same,"in vitro cleavage, 4 hours at 37 C, western blot",[2],Full-length HA-EFEMP1 was detected at the expected position and a lower band was detected matching the predicted HA tagged amino terminus after cleavage by ADAMTS7 in the atypical first EGF domain
B2,"in vitro cleavage, western blot and mass spectrometry of gel bands",[2],"background cleavage under conditions with no enzyme or with ADAMTS7 S3A EQ treatment, however these occurrences were relatively minor compared to the activity stimulated by ADAMTS7 S3A WT"
B3,"auto-cleavage, western blot of HUVEC media",[1],ADAMTS7 WT migrated at two bands matching the observed autocleavage event in the mucin domain
same,"cleavage of endogenous EFEMP1 in HUVEC media, western blot and mass spectrometry",[3],identified semi-tryptic and semi-chymotryptic peptides indicating cleavage at 123.124 and 124.125 sites from the Ad-ADAMTS7 WT sample
same,relative cleavage at 123.124 against 124.125 (TAILS log FC and total intensities),[3],predicting 2-3 fold more cleavage at 123.124 (ASAA|AVAG) (SEQ ID NO: 1) compared to the adjacent 124.125 (SAAA|VAGP) (SEQ ID NO: 2) site
B4,"cleavage of endogenous EFEMP1 in HUVEC media, mass spectrometry",[3],these sites were not detected in the Luc or EQ samples
